target: acetylcholine receptor; experiment: SPR, receptor immobilized, peptide 10 uM

Row | Binding affinity (RU) | Binder
1 | 23 | RCNWKR [6mer-2-854]
2 | 17 | RKHWRR [6mer-2-863]
3 | 21 | RMDFRK [6mer-2-859]
4 | 12 | RKCAKK [6mer-2-864]
5 | 20 | KHTEKK [6mer-2-857]
6 | 29 | RHTFKK [6mer-2-862]
7 | 14 | KEPMRR [6mer-2-856]
8 | 24 | RDNPKK [6mer-2-866]
9 | 16 | RHCNRK [6mer-2-865]
10 | 30 | KEEHRR [6mer-2-858]
11 | 29 | KHTGRR [6mer-2-853]
12 | 21 | KDTDRK [6mer-2-861]
13 | 19 | REMIKR [6mer-2-855]
14 | 31 | KPNFRR [6mer-2-860]

The next lines start with the binder.

Row | Binder | Binding affinity (RU)
15 | RNCERR [6mer-2-852] | 28
16 | KMKEKR [6mer-2-845] | 14
17 | RMTERK [6mer-2-848] | 29
18 | KPKMRR [6mer-2-842] | 22
19 | RNTAKK [6mer-2-849] | 13
20 | RCTVRK [6mer-2-838] | 13
21 | KPNHRK [6mer-2-841] | 33
22 | RDPKKK [6mer-2-844] | 22
23 | KNTMKR [6mer-2-836] | 26
24 | KFWWRR [6mer-2-851] | 19
25 | KNHNRR [6mer-2-839] | 32
26 | REDFRR [6mer-2-837] | 32
27 | KDWDRK [6mer-2-840] | 15
28 | RYCHKR [6mer-2-847] | 22
29 | RFSFKR [6mer-2-846] | 30
30 | KAPDRK [6mer-2-843] | 33
31 | KTSMKR [6mer-2-850] | 16
